In PMC10672168, “Invasive Staphylococcus epidermidis uses a unique processive wall teichoic acid glycosyltransferase to evade immune recognition” (Science Advances, 2023):

Key:
[1] = target: TarM(Se) N203A mutant (S. epidermidis); experiment: SEC; Superdex 200 increase 10/30, calibrated column; buffer D: 20 mM triethanolamine pH 7.8 (TarM(Se)_(G117R)) or 8.5 (TarM(Se) and mutant proteins), 250 mM LiCl, 10 mM β-mercaptoethanol, 5% glycerol
TarM(Se) = details: 30 mM ligand; acceptor site; only two RboP units and one phosphate ordered; monomeric mutant
[2] = target: TarM(Se) N9A mutant (S. epidermidis); experiment: SEC; Superdex 200 increase 10/30, calibrated column; buffer D: 20 mM triethanolamine pH 7.8 (TarM(Se)_(G117R)) or 8.5 (TarM(Se) and mutant proteins), 250 mM LiCl, 10 mM β-mercaptoethanol, 5% glycerol
[3] = target: TarM(Se) K233A mutant (S. epidermidis); experiment: as above
[4] = target: TarM(Se) E10A mutant (S. epidermidis); experiment: as above
[5] = target: TarM(Se) N255A mutant (S. epidermidis); experiment: as above
[6] = target: TarM(Se), WTA glycosyltransferase TarM of S. epidermidis, wild type (S. epidermidis); experiment: crystal structure
[7] = target: TarM(Se), WTA glycosyltransferase TarM of S. epidermidis, wild type (S. epidermidis); experiment: SEC; Superdex 200 increase 10/30, calibrated column; buffer D: 20 mM triethanolamine pH 7.8 (TarM(Se)_(G117R)) or 8.5 (TarM(Se) and mutant proteins), 250 mM LiCl, 10 mM β-mercaptoethanol, 5% glycerol
[8] = target: TarM(Se) Q265A mutant (S. epidermidis); experiment: as above

TarM(Se) N203A mutant (enzyme)
stoichiometry N [1]: 3

NCCCCCCOP(=O)(O)OC[C@@H](O)[C@@H](O)[C@@H](O)COP(=O)(O)OC[C@@H](O)[C@@H](O)[C@@H](O)COP(=O)(O)OC[C@@H](O)[C@@H](O)[C@@H](O)COP(=O)(O)OC[C@@H](O)[C@@H](O)[C@@H](O)CO [4RboP-(CH2)6NH2]
X-ray crystal structure (cocrystallization) (TarM(Se)): The 4RboP-(CH2)6NH2 compound was introduced into the TarM(Se)G117R crystals through cocrystallization

TarM(Se) N9A mutant (enzyme)
stoichiometry N [2]: 3

TarM(Se) K233A mutant (enzyme)
stoichiometry N [3]: 3

TarM(Se) E10A mutant (enzyme)
stoichiometry N [4]: 3

TarM(Se) N255A mutant (enzyme)
stoichiometry N [5]: 3

TarM(Se), WTA glycosyltransferase TarM of S. epidermidis, wild type (enzyme)
stoichiometry N [6]: 3 | stoichiometry N [7]: 3

TarM(Se) Q265A mutant (enzyme)
stoichiometry N [8]: 3
